Experimental data from patent US20240116985A1 (published 2024).
Starred links: 1 amine or outer side, 2 acyl side, 3 side chain; linkers in the order of their positions; H or OH if unused. Positions of bridges follow the written chain, without caps; N, C: chain ends. Non-standard residues stand in square brackets, D forms with d. Primed or numbered codes have the meaning given here. *: point of attachment. PyrS2″ = (S)-3-amino-1-((pent-4-en-1-yloxy)carbonyl)pyrrolidine-3-carboxylic acid (stapling residue), C=CCCCOC(=O)N1CC[C@@](N[*:1])(C(=O)[*:2])C1; B5(18) = 2,2-bis(4-pentenyl)glycine (2-amino-2-(pent-4-en-1-yl)hept-6-enoic acid), stitching residue, C=CCCCC(CCCC=C)(N[*:1])C(=O)[*:2]; B5(24) = 2-amino-2-(pent-4-en-1-yl)hept-6-enoic acid, 2,2-bis(4-pentenyl)glycine (stitching residue), C=CCCCC(CCCC=C)(N[*:1])C(=O)[*:2]; B5(4) = 2,2-bis(4-pentenyl)glycine = 2-amino-2-(pent-4-en-1-yl)hept-6-enoic acid (stitching residue), C=CCCCC(CCCC=C)(N[*:1])C(=O)[*:2]; B5(5) = 2,2-bis(4-pentenyl)glycine, 2-amino-2-(pent-4-en-1-yl)hept-6-enoic acid (stitching residue), C=CCCCC(CCCC=C)(N[*:1])C(=O)[*:2]; B5(33) = 2-amino-2-(pent-4-en-1-yl)hept-6-enoic acid (bis-pentenylglycine, two olefin side chains), C=CCCCC(CCCC=C)(N[*:1])C(=O)[*:2]; PyrS2 = (S)-3-amino-1-((pent-4-en-1-yloxy)carbonyl)pyrrolidine-3-carboxylic acid, C=CCCCOC(=O)N1CC[C@@](N[*:1])(C(=O)[*:2])C1; B5(3) = 2,2-bis(4-pentenyl)glycine (stitching residue), C=CCCCC(CCCC=C)(N[*:1])C(=O)[*:2]; mPEG2 = N-terminal 3-(2-methoxyethoxy)propanoic acid, COCCOCCC(=O)*; Phe(3-CF3) = N[C@@H](Cc1cccc(C(F)(F)F)c1)C(=O)O; Phe(3-OMe) = COc1cccc(C[C@H](N)C(=O)O)c1; Phe(2-Cl) = N[C@@H](Cc1ccccc1Cl)C(=O)O; 1Nal = N[C@@H](Cc1cccc2ccccc12)C(=O)O; 2Nal = N[C@@H](Cc1ccc2ccccc2c1)C(=O)O; Bta = N[C@@H](Cc1csc2ccccc12)C(=O)O; Lys(iPr) = CC(C)NCCCC[C@H](N)C(=O)O; αAllylPro = C=CC[C@@]1(C(=O)O)CCCN1; tBuAla = CC(C)(C)C[C@H](N)C(=O)O; Cha = N[C@@H](CC1CCCCC1)C(=O)O; S8 = C=CCCCCCC[C@](C)(N)C(=O)O; Thr(ol) = C[C@@H](O)[C@H](N)CO; Propanoyl(3-OMe) = COCCC(=O)*; Leu(ol) = CC(C)C[C@H](N)CO; Alaol = C[C@@H](CO)N*; Ms = CS(=O)(=O)*

T1: B-cat-Halo (UniProt P35222 1-781)
T1 sequence (looked up): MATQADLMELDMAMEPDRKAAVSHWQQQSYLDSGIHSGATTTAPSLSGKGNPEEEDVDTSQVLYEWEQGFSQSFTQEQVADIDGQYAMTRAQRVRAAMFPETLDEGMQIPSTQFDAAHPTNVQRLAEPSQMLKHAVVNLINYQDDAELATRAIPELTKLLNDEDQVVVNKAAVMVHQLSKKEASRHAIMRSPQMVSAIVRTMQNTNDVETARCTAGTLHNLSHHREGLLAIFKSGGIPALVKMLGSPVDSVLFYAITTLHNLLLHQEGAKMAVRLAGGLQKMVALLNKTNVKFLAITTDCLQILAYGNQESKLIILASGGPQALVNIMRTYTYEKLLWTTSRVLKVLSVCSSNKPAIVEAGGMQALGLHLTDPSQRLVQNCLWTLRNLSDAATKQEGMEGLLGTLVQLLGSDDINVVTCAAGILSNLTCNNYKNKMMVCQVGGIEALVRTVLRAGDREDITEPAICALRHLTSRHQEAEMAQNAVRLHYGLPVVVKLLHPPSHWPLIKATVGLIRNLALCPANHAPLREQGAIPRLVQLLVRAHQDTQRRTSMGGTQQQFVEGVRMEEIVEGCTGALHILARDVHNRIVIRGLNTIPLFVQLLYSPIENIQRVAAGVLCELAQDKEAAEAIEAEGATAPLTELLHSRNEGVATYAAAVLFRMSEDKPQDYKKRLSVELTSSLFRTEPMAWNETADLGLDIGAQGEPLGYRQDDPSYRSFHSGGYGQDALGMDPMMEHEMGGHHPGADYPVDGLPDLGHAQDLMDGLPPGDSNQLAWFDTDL

T2: B-cat-Halo (UniProt P35222 1-781)
T2 sequence (looked up): T1 sequence (looked up)

T3: B-cat-Halo (beta-catenin HaloTag NanoBRET construct expressed in HEK293 cells) (Homo sapiens (Human), UniProt P35222 1-781)
T3 sequence: T1 sequence (looked up)

B1: I-1017 (peptide)
peptide: Ac-[αAllylPro]D[tBuAla][B5(18)]DDAAFS[PyrS2″][Phe(2-Cl)][Bta]Q-NH2
modifications: staple 1-4, 4-11
B2: I-1018 (peptide)
peptide: Ac-[αAllylPro]D[tBuAla][B5(18)]DNAAFS[PyrS2″][Phe(2-Cl)][Bta]Q-NH2
modifications: staple 1-4, 4-11
B3: I-1128 (peptide)
peptide: Ac-[αAllylPro]D[tBuAla][B5(3)]DDAA[Phe(3-CF3)]L[PyrS2″]F[Bta]Q-NH2
modifications: staple 1-4, 4-11 (inferred)
B4: I-1118 (peptide)
peptide: Ac-[αAllylPro]D[Cha][B5(3)]DDAA[Phe(3-OMe)]S[PyrS2″][Phe(2-Cl)][Bta]Q-NH2
modifications: staple 1-4, 4-11 (inferred)
B5: I-1132 (peptide)
peptide: Ac-[αAllylPro]D[tBuAla][B5(24)]DDA[Lys(iPr)]FN[PyrS2″][Phe(2-Cl)][Bta]Q-NH2
modifications: staple 1-4, 4-11
B6: I-1136 (peptide)
peptide: Ac-[αAllylPro]D[Cha][B5(24)]DDAAFS[PyrS2″][Phe(2-Cl)][Bta][dT]-NH2
modifications: staple 1-4, 4-11
B7: I-1126 (peptide)
peptide: Ac-[αAllylPro]D[Cha][B5(3)]DDAAFS[PyrS2″]F[Bta]Q-NH2
modifications: staple 1-4, 4-11 (inferred); not fully specified (residue 9); printed as Ac-PL3-Asp-Cha-B5-Asp-Asp-Ala-Ala-4F3MeF-Ser-PyrS2-Phe-BztA-Gln-NH2
B8: I-1130 (peptide)
peptide: Ac-[αAllylPro]D[tBuAla][B5(24)]DDAAFN[PyrS2″][Phe(2-Cl)][Bta][Lys(iPr)]-NH2
modifications: staple 1-4, 4-11
B9: I-1119 (peptide)
peptide: Ac-[αAllylPro]D[Cha][B5(3)]DDAA[Phe(3-CF3)]S[PyrS2″][Phe(2-Cl)][Bta]Q-NH2
modifications: staple 1-4, 4-11 (inferred)
B10: I-1124 (peptide)
peptide: Ac-[αAllylPro]D[Cha][B5(3)]DDAA[Phe(3-OMe)]S[PyrS2″]F[Bta]Q-NH2
modifications: staple 1-4, 4-11 (inferred)
B11: I-1127 (peptide)
peptide: Ac-[αAllylPro]D[tBuAla][B5(3)]DDAA[Phe(3-OMe)]L[PyrS2″]F[Bta]Q-NH2
modifications: staple 1-4, 4-11 (inferred)
B12: I-1115 (peptide)
peptide: Ac-[αAllylPro]D[2Nal][B5(3)]DDAAFT[PyrS2″][2C1F][Bta]S-NH2
modifications: staple 1-4, 4-11
B13: I-1125 (peptide)
peptide: Ac-[αAllylPro]D[Cha][B5(3)]DDAA[Phe(3-CF3)]S[PyrS2″]F[Bta]Q-NH2
modifications: staple 1-4, 4-11 (inferred)
B14: I-1121 (peptide)
peptide: Ac-[αAllylPro]D[tBuAla][B5(3)]DDAA[Phe(3-OMe)]L[PyrS2″][Phe(2-Cl)][Bta]Q-NH2
modifications: staple 1-4, 4-11 (inferred)
B15: I-1131 (peptide)
peptide: Ac-[αAllylPro]D[tBuAla][B5(24)]DD[Lys(iPr)]AFN[PyrS2″][Phe(2-Cl)][Bta]Q-NH2
modifications: staple 1-4, 4-11
B16: I-1122 (peptide)
peptide: Ac-[αAllylPro]D[tBuAla][B5(3)]DDAA[Phe(3-CF3)]L[PyrS2″][Phe(2-Cl)][Bta]Q-NH2
modifications: staple 1-4, 4-11 (inferred)
B17: I-1123 (peptide)
peptide: Ac-[αAllylPro]D[tBuAla][B5(3)]DDAAFL[PyrS2″][Phe(2-Cl)][Bta]Q-NH2
modifications: staple 1-4, 4-11 (inferred); not fully specified (residue 9); printed as Ac-PL3-Asp-Npg-B5-Asp-Asp-Ala-Ala-4F3MeF-Leu-PyrS2-2C1F-BztA-Gln-NH2
B18: I-1120 (peptide)
peptide: Ac-[αAllylPro]D[Cha][B5(3)]DDAAFS[PyrS2″][Phe(2-Cl)][Bta]Q-NH2
modifications: staple 1-4, 4-11 (inferred); not fully specified (residue 9); printed as Ac-PL3-Asp-Cha-B5-Asp-Asp-Ala-Ala-4F3MeF-Ser-PyrS2-2C1F-BztA-Gln-NH2
B19: I-1248 (peptide)
peptide: Ac-[αAllylPro]D[tBuAla][B5(4)]DDAAFL[PyrS2″][Phe(2-Cl)][Bta]Q-NHEt
modifications: staple 1-4, 4-11
B20: I-1250 (peptide)
peptide: Ac-[αAllylPro]D[tBuAla][B5(4)]DDAAFL[PyrS2″][Phe(2-Cl)][Bta]-Alaol
modifications: staple 1-4, 4-11
B21: I-1255 (peptide)
peptide: mPEG2-[αAllylPro]D[tBuAla][B5(33)]DDAAFT[S8][Phe(2-Cl)][Bta]Q-NH2
modifications: staple 1-4, 4-11
B22: I-1267 (peptide)
peptide: Ac-[αAllylPro]D[tBuAla][B5(5)]DTAA[2Nal]T[PyrS2″]F[Bta]S-NH2
modifications: staple 1-4, 4-11
B23: I-1265 (peptide)
peptide: Ac-[αAllylPro]D[tBuAla][B5(33)]DTALFT[PyrS2]F[Bta]S-NH2
modifications: staple 1-4, 4-11
B24: I-1264 (peptide)
peptide: Ac-[αAllylPro]D[tBuAla][B5(33)]DTLAFT[PyrS2]F[Bta]S-NH2
modifications: staple 1-4, 4-11
B25: I-1263 (peptide)
peptide: Ac-[αAllylPro]D[tBuAla][B5(33)]DTAAFT[PyrS2]F[Bta]S-NH2
modifications: staple 1-4, 4-11
B26: I-1260 (peptide)
peptide: XDXXDDAAFTXFXQ
modifications: not fully specified; MeSO2-PL3-Asp-Npg-B5-Asp-Asp-Ala-Ala-Phe-Thr-S8-2C1F-BztA-Gln-NH2; stapled by olefin metathesis (PL3-B5 and B5-S8)
B27: I-1249 (peptide)
peptide: Ac-[αAllylPro]D[tBuAla][B5(4)]DDAAFL[PyrS2″][Phe(2-Cl)][Bta][Thr(ol)]
modifications: staple 1-4, 4-11
B28: I-1259 (peptide)
peptide: {Propanoyl(3-OMe)}-[αAllylPro]D[tBuAla][B5(33)]DDAAFN[PyrS2][Phe(2-Cl)][Bta][dT]-NH2
modifications: staple 1-4, 4-11
B29: I-1253 (peptide)
peptide: mPEG2-[αAllylPro]D[tBuAla][B5(5)]DDAAFN[PyrS2″][Phe(2-Cl)][Bta][dT]-NH2
modifications: staple 1-4, 4-11
B30: I-1258 (peptide)
peptide: Ms-[αAllylPro]D[tBuAla][B5(33)]DDAAFN[PyrS2][Phe(2-Cl)][Bta][dT]-NH2
modifications: staple 1-4, 4-11; not fully specified; printed as MeSO2-PL3-Asp-Npg-B5-Asp-Asp-Ala-Ala-Phe-Asn-PyrS2-2C1F-BztA-dThr-NH2
B31: I-1261 (peptide)
peptide: {Propanoyl(3-OMe)}-[αAllylPro]D[tBuAla][B5(33)]DDAAFT[S8][Phe(2-Cl)][Bta]Q-NH2
modifications: staple 1-4, 4-11
B32: I-1247 (peptide)
peptide: Ac-[αAllylPro]D[tBuAla][B5(4)]DDAAFT[PyrS2″][Phe(2-Cl)][Bta][Leu(ol)]
modifications: staple 1-4, 4-11
B33: I-1266 (peptide)
peptide: Ac-[αAllylPro]D[tBuAla][B5(5)]DTAA[1Nal]T[PyrS2″]F[Bta]S-NH2
modifications: staple 1-4, 4-11

target: T1, B-cat-Halo; assay: cell-based or functional assay

Row | Binder | NanoBRET Abs IC50 [µM]
1 | B1 | 8.9
2 | B2 | 25.8

target: T2, B-cat-Halo; assay: cell-based or functional assay

Row | Binder | NanoBRET Abs IC50 [µM]
3 | B3 | 8.1
4 | B4 | 29.5
5 | B5 | > 20
6 | B6 | 14.9
7 | B7 | 26.8
8 | B8 | 7.6
9 | B9 | 19.4
10 | B10 | > 20
11 | B11 | 5.4
12 | B12 | 24.3
13 | B13 | > 20
14 | B14 | 9.2
15 | B15 | 18.8
16 | B16 | 12.3
17 | B17 | 28.5
18 | B18 | > 20

target: T3, B-cat-Halo (beta-catenin HaloTag …); assay: cell-based or functional assay

Row | Binder | NanoBRET Abs IC50 [µM]
19 | B19 | 29.7
20 | B20 | > 20
21 | B21 | > 20
22 | B22 | 36.9
23 | B23 | 22.7
24 | B24 | > 20
25 | B25 | 20
26 | B26 | 24
27 | B27 | 25.2
28 | B28 | 18.1
29 | B29 | > 20
30 | B30 | > 20
31 | B31 | 19.8
32 | B32 | > 20
33 | B33 | > 20
